Experimental findings from paper PMC4827055 are described below.

The target of the test is human Toll-like receptor 5 (TLR5) expressed on HEK293 cells (human) (UniProt O60602).
Sequence of UniProt O60602 (O60602 21-858): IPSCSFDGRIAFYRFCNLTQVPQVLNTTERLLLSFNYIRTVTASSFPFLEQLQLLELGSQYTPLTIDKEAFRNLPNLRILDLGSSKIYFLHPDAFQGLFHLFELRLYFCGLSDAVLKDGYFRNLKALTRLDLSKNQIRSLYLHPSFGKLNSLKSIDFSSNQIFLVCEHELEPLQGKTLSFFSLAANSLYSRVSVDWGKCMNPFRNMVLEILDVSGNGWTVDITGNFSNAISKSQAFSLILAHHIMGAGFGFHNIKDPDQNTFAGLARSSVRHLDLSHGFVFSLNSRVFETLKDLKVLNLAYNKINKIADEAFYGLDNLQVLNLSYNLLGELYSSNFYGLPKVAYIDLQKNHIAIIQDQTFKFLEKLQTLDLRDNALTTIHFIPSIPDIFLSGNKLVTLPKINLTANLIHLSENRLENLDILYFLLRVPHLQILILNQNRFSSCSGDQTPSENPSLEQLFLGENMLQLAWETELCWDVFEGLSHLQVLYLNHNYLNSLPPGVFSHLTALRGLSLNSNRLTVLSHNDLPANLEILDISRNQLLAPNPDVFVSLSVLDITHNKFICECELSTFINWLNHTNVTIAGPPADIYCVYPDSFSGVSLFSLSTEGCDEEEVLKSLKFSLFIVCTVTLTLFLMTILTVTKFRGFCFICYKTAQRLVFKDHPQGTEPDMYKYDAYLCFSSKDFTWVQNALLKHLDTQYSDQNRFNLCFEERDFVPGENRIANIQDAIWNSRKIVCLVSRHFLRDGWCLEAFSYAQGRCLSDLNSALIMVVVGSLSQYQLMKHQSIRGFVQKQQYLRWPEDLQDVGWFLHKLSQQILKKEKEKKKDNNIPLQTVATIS

The substance “recombinant flagellin (rFliC) from Salmonella enterica serovar Typhimurium (from UniProt P06179 1-495) (natural protein)” registered an EC50 (half maximal induction) of NF-κB luciferase reporter in HEK293/hTLR5 cells, 24 hr stimulation of 0.0067 nM. To “recombinant flagellin-E7m fusion protein rFliCE7m (E7m fused at the C-terminus of flagellin) (from UniProt P06179 1-495)” belongs 0.0237 nM.
